{
  "source": "patent US7250269B2",
  "about": "“Composition for assaying glycoprotein” (Asahi Kasei Pharma Corporation, priority 2001, dated 2007)",
  "type_in_all_cases": "biochemical",
  "key": {"[1]": {"target": "T1, HSA substrate solution; Albumin Human (Homo sapiens, UniProt P02768)", "T1 construct": "purchased Sigma-Aldrich Co", "test": "Activity of various proteases on HSA substrate solution (released glycated amino acids/peptides assayed with R-FOD)", "conditions": "pH 8.0; 37° C. for 30 minutes", "protocol": "(§1) • 1. […] GA % was assayed using a glycated albumin analyzer (GAA-2000, manufactured by ARKRAY, Inc.). • 2. G-II and III substrate solutions, FRA value=48 μmol/L [Globulins Human Cohn Fraction II and III; 16.9 mg/ml (manufactured by Sigma-Aldrich Co.)] • 3. G-IV substrate solution, FRA value=26 μmol/L [Globulins Human Cohn Fraction IV; 6 mg/ml (manufactured by Sigma-Aldrich Co.)] • 4. G-I substrate solution, FRA value=77 μmol/L [Glovenin I: immunoglobulin preparation (manufactured by Takeda Chemical Industries, Ltd.)] • 5. Hb substrate solution: Hemoglobin Human; 55 mg/ml, glycated hemoglobin rate: HbA1c=4.5% [manufactured by Sigma-Aldrich Co., the HbA1c value was determined using a glycated hemoglobin analyzer (Hi-Auto A1C HA-8150, manufactured by ARKRAY, Inc.)].\n(§2) 200 μl of a substrate solution other than Hb, 40 μl of 100 mg/ml protease solution (a solution with a concentration as close to 100 mg/ml as possible if a 100 mg/ml solution cannot be prepared, or as is if the protease solution is liquid), and 10 μl of 1 M Tris buffer solution (pH 8) were thoroughly mixed and reacted at 37° C. for 30 minutes. The reaction solution was filtered through 10,000 NMWL membrane (Ultrafree MC, manufactured by Millipore Corp.) The filtrate was served as the protease reaction sample. The same procedure was conducted using distilled water instead of the substrate to prepare a blank sample.\n(§3) 300 μl of the above reaction solution for assaying glycated amino acids was added to a cell and incubated for three minutes at 37° C. […] 30 μl of the protease reaction sample was then added to the cell and incubated for five minutes at 37° C. […] The same procedure was conducted using the blank sample instead of the protease reaction sample. Absorbances (A0 blank and A1 blank) were measured. The reaction of protease with glycated proteins is indicated by the following absorbance change. ΔA=(A1−A0)−(A1 blank−A0 blank)"}, "[2]": {"target": "T2, Hb substrate solution: Hemoglobin Human (Homo sapiens, UniProt P68871+P69905)", "T2 construct": "purchased Sigma-Aldrich Co", "T2 sequence (P69905 2-142 limits assumed)": "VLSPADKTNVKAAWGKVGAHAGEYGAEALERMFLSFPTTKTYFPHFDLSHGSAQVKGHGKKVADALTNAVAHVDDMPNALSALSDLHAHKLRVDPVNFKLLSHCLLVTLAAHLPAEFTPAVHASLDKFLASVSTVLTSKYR", "T2 sequence (P68871 2-147 limits assumed)": "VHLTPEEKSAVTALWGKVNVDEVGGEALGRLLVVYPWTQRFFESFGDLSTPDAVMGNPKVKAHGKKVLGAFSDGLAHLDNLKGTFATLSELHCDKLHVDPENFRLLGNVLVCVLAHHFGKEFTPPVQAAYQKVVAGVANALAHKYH", "test": "Activity of various proteases on Hb substrate solution (R-FOD assay)", "conditions": "pH 8.0; 37° C. for 60 minutes", "protocol": "as §1\nFor the Hb substrate solution, 150 μl of the substrate solution, 60 μl of 200 mg/ml protease solution (a solution with a concentration as close to 200 mg/ml as possible if a 200 mg/ml solution cannot be prepared, or as is if the protease solution is liquid), and 5 μl of 1 M Tris buffer solution (pH 8) were thoroughly mixed and reacted at 37° C. for 60 minutes. The reaction solution was filtered through 10,000 NMWL membrane (Ultrafree MC, manufactured by Millipore Corp.). The filtrate was served as the protease reaction sample. The same procedure was conducted using distilled water instead of the substrate to prepare a blank sample.\nas §3"}, "[3]": {"system": "G-I substrate solution (Glovenin I: immunoglobulin preparation)", "test": "Activity of various proteases on G-I substrate solution (R-FOD assay)", "conditions": "pH 8.0, 37° C. for 30 minutes", "protocol": "as §1, §2, §3"}, "[4]": {"test": "FOD enzyme activity / substrate specificity on glycated lysine", "conditions": "glycated lysine / glycated valine", "protocol": "164 strains of mutant colonies obtained in Example 15 were cultured for 16 hours at 30° C. in 1.5 ml of a 3.7% BHI liquid medium (manufactured by DIFCO Co.) containing 50 μg/ml of ampicillin and 1 mM of IPTG. 1 ml of the culture broth was centrifuged (15,000 G for one minute at 4° C.) to collect cells. 200 μl of 10 mM Tris-HCl buffer solution (pH 8.0) was added to the collected cells. After crushing the cells using an ultrasonic breaker, the mixture was centrifuged (14,000 G for five minutes at 4° C.) to obtain a cell extract as a supernatant.\nThe glycated amino acid substrate specificity of FOD-mutated recombinant contained in the cell extract prepared in Example 16 was measured using the above-mentioned FOD enzyme activity measuring method.\nSynthesis of an oligonucleotide having the base sequence of 1-27 in the sequence table Sequence ID No. 7 was consigned to an outside source (BEX Co., Ltd.). The oligonucleotide was subjected to the site-directed mutagenesis using the Mutan-K kit (manufactured by Takara Shuzo Co., Ltd.) according to the manual attached to the kit. The mutant gene obtained was incorporated again into the expression plasmid pTV119N, introduced into Escherichia coli host, and cultured at 30° C. for 16 hours in a 3.7% BHI liquid medium containing 50 μg/ml of ampicillin and 1 mM of IPTG to produce mutant FOD protein."}},
  "data": [
    {"molecule": "Carboxypeptidase A: protease, origin Cow pancreas (protein, UniProt P00730 111-419, looked up) Carboxypeptidase A1: ARSTNTFNYATYHTLDEIYDFMDLLVAEHPQLVSKLQIGRSYEGRPIYVLKFSTGGSNRPAIWIDLGIHSREWITQATGVWFAKKFTEDYGQDPSFTAILDSMDIFLEIVTNPDGFAFTHSQNRLWRKTRSVTSSSLCVGVDANRNWDAGFGKAGASSSPCSETYHGKYANSEVEVKSIVDFVKDHGNFKAFLSIHSYSQLLLYPYGYTTQSIPDKTELNQVAKSAVEALKSLYGTSYKYGSIITTIYQASGGSIDWSYNQGIKYSFTFELRDTGRYGFLLPASQIIPTAQETWLGVLTIMEHTLNNLY", "values": [
      {"measurement": "ΔA HSA", "setting": "[1]", "value": "<1", "unit": "mAbs"},
      {"measurement": "ΔA Hb", "setting": "[2]", "value": 13, "unit": "mAbs"},
      {"measurement": "ΔA Gl", "setting": "[3]", "value": 50, "unit": "mAbs"}
    ]},
    {"molecule": "Reactive 327th amino acid Valine: mutant obtained by replacing the lysine with valine, named FOD-V; plasmid pcmFOD5; Sequence ID No. 4 (protein, sequence derived from Fusarium oxysporum IFO- 9722) ASTLTKQSQILIVGGGTWGCSTALHLARRGYTNVTVLDVNRIPSPISAGHDVNKLAGRLSTADSKGDDEDSIWKALSYAAAQGWLHDPVFQPFCHNTGSVVAGSTPKSIKQLVEDEIGDDIDQYTPLNTAEDFRKTMPEGILTGNFPGWKGFYKPTGSGWVHARKAMKAAFEESERLGVKFITGSPEGKVESLIFEDGDVRGAKTADGKEHRADRTILSAGASAEFFLDFENQIQPTAWTLGHIQMTPEETKLYKNLPPLFNINQGFFMEPDEDLHQLKMCDEHPGYCNWVEKPGSKYPQSIPFAKHQVPTEAERRMKQFLKDIMPQLADRPLVHARICWCADTQDRMFLITYHPRHPSLVIASGDCGTGYVHITSIGKFISDCMEGTLEERFAKFWRWRPEKFTEFWGKDPLDRFGADDKIMDLPKSDVEGWTNIKNDI", "values": [
      {"measurement": "Reactivity ratio, glycated lysine / glycated valine", "setting": "[4]", "value": 1930}
    ]},
    {"molecule": "Reactive 327th amino acid Lysine (wild type): wild type fructosyl amino acid oxidase (FOD) originating from Fusarium oxysporm IFO-9972, Sequence ID No. 1 (protein) ASTLTKQSQILIVGGGTWGCSTALHLARRGYTNVTVLDVNRIPSPISAGHDVNKLAGRLSTADSKGDDEDSIWKALSYAAAQGWLHDPVFQPFCHNTGSVVAGSTPKSIKQLVEDEIGDDIDQYTPLNTAEDFRKTMPEGILTGNFPGWKGFYKPTGSGWVHARKAMKAAFEESERLGVKFITGSPEGKVESLIFEDGDVRGAKTADGKEHRADRTILSAGASAEFFLDFENQIQPTAWTLGHIQMTPEETKLYKNLPPLFNINQGFFMEPDEDLHQLKMCDEHPGYCNWVEKPGSKYPQSIPFAKHQVPTEAERRMKQFLKDIMPQLADRPLVHARICWCADTQDRMFLITYHPRHPSLVIASGDCGTGYKHITSIGKFISDCMEGTLEERFAKFWRWRPEKFTEFWGKDPLDRFGADDKIMDLPKSDVEGWTNIKNDI", "values": [
      {"measurement": "Reactivity ratio, glycated lysine / glycated valine", "setting": "[4]", "value": 9.5}
    ]},
    {"molecule": "Trypsin: protease, origin Cow pancreas (protein, UniProt P00760 24-246, looked up) Serine protease 1: IVGGYTCGANTVPYQVSLNSGYHFCGGSLINSQWVVSAAHCYKSGIQVRLGEDNINVVEGNEQFISASKSIVHPSYNSNTLNNDIMLIKLKSAASLNSRVASISLPTSCASAGTQCLISGWGNTKSSGTSYPDVLKCLKAPILSDSSCKSAYPGQITSNMFCAGYLEGGKDSCQGDSGGPVVCSGKLQGIVSWGSGCAQKNKPGVYTKVCNYVSWIKQTIASN", "values": [
      {"measurement": "ΔA HSA", "setting": "[1]", "value": 11, "unit": "mAbs"},
      {"measurement": "ΔA Hb", "setting": "[2]", "value": "<1", "unit": "mAbs"},
      {"measurement": "ΔA Gl", "setting": "[3]", "value": 15, "unit": "mAbs"}
    ]},
    {"molecule": "Carboxypeptidase Y: protease, origin Yeast (protein, UniProt P00729 112-532, looked up) Carboxypeptidase Y: KIKDPKILGIDPNVTQYTGYLDVEDEDKHFFFWTFESRNDPAKDPVILWLNGGPGCSSLTGLFFELGPSSIGPDLKPIGNPYSWNSNATVIFLDQPVNVGFSYSGSSGVSNTVAAGKDVYNFLELFFDQFPEYVNKGQDFHIAGESYAGHYIPVFASEILSHKDRNFNLTSVLIGNGLTDPLTQYNYYEPMACGEGGEPSVLPSEECSAMEDSLERCLGLIESCYDSQSVWSCVPATIYCNNAQLAPYQRTGRNVYDIRKDCEGGNLCYPTLQDIDDYLNQDYVKEAVGAEVDHYESCNFDINRNFLFAGDWMKPYHTAVTDLLNQDLPILVYAGDKDFICNWLGNKAWTDVLPWKYDEEFASQKVRNWTASITDEVAGEVKSYKHFTYLRVFNGGHMVPFDVPENALSMVNEWIHGGFSL", "values": [
      {"measurement": "ΔA HSA", "setting": "[1]", "value": 2, "unit": "mAbs"},
      {"measurement": "ΔA Hb", "setting": "[2]", "value": 4, "unit": "mAbs"},
      {"measurement": "ΔA Gl", "setting": "[3]", "value": 14, "unit": "mAbs"}
    ]},
    {"molecule": "Alcalase: protease, origin Bacillus (protein, UniProt P00780 106-379, looked up) Subtilisin Carlsberg: AQTVPYGIPLIKADKVQAQGFKGANVKVAVLDTGIQASHPDLNVVGGASFVAGEAYNTDGNGHGTHVAGTVAALDNTTGVLGVAPSVSLYAVKVLNSSGSGSYSGIVSGIEWATTNGMDVINMSLGGASGSTAMKQAVDNAYAKGVVVVAAAGNSGSSGNTNTIGYPAKYDSVIAVGAVDSNSNRASFSSVGAELEVMAPGAGVYSTYPTNTYATLNGTSMASPHVAGAAALILSKHPNLSASQVRNRLSSTATYLGSSFYYGKGLINVEAAAQ", "values": [
      {"measurement": "ΔA HSA", "setting": "[1]", "value": 92, "unit": "mAbs"},
      {"measurement": "ΔA Hb", "setting": "[2]", "value": 17, "unit": "mAbs"},
      {"measurement": "ΔA Gl", "setting": "[3]", "value": 49, "unit": "mAbs"}
    ]},
    {"molecule": "Proteinase K: protease, origin Tritirachium (protein, UniProt P06873 106-384, looked up) Proteinase K: AAQTNAPWGLARISSTSPGTSTYYYDESAGQGSCVYVIDTGIEASHPEFEGRAQMVKTYYYSSRDGNGHGTHCAGTVGSRTYGVAKKTQLFGVKVLDDNGSGQYSTIIAGMDFVASDKNNRNCPKGVVASLSLGGGYSSSVNSAAARLQSSGVMVAVAAGNNNADARNYSPASEPSVCTVGASDRYDRRSSFSNYGSVLDIFGPGTSILSTWIGGSTRSISGTSMATPHVAGLAAYLMTLGKTTAASACRYIADTANKGDLSNIPFGTVNLLAYNNYQA", "values": [
      {"measurement": "ΔA HSA", "setting": "[1]", "value": 79, "unit": "mAbs"},
      {"measurement": "ΔA Hb", "setting": "[2]", "value": 32, "unit": "mAbs"},
      {"measurement": "ΔA Gl", "setting": "[3]", "value": 45, "unit": "mAbs"}
    ]},
    {"molecule": "Papain: protease, origin Papaya (protein, UniProt P00784 134-345, looked up) Papain: IPEYVDWRQKGAVTPVKNQGSCGSCWAFSAVVTIEGIIKIRTGNLNEYSEQELLDCDRRSYGCNGGYPWSALQLVAQYGIHYRNTYPYEGVQRYCRSREKGPYAAKTDGVRQVQPYNEGALLYSIANQPVSVVLEAAGKDFQLYRGGIFVGPCGNKVDHAVAAVGYGPNYILIKNSWGTGWGENGYIRIKRGTGNSYGVCGLYTSSFYPVKN", "values": [
      {"measurement": "ΔA HSA", "setting": "[1]", "value": 15, "unit": "mAbs"},
      {"measurement": "ΔA Hb", "setting": "[2]", "value": "<1", "unit": "mAbs"},
      {"measurement": "ΔA Gl", "setting": "[3]", "value": 5, "unit": "mAbs"}
    ]}
  ]
}
